The text below walks through data of doi:10.1101/2022.10.12.511876.

Like-named read-outs stand apart in the source and are kept apart here.

Test [1] concerns the target Mpf2Ba1 activated by WCR gut fluid (N-terminally cleaved after Lys25) (Pseudomonas monteilii). The experiment in a line: cryo-EM structure.
Test [2] has the same target. Description: cryo-EM structure. This is another data set of the same source.

As for “Mpf2Ba1 activated by WCR gut fluid (N-terminally cleaved after Lys25) (domain or fragment)”, the stoichiometry N in test [1] was 22; in test [2] it was 21.

The term stoichiometry N denotes the number of molecules, sites or subunits per partner or assembly.
